# Measured values reported in the Human Domainome abundance scans (Beltran et al. 2025).
# ± gives the uncertainty stated by the source.
# B1: Storkhead-box protein 2, residues 64 to 141; numbered along this chain, Q9P2F5 (parent)
# chain: SPISQSQFIPLGEILCLAISAMNSARKPVTQEALMEHLTTCFPGVPTPSQEILRHTLNTLVRERKIYPTPDGYFIVTP
# Variants of: B1
# Assay: abundance fitness (aPCA) (normalised: wild type 0, dead -1); higher = more abundant; growth selection in yeast, the domain comes from the species named
# Details: Homo sapiens
row,Variant,abundance fitness
1,SPISQSQFIPLGEILCLAISAMNSARKPVTQEALMERLTTCFPGVPTPSQEILRHTLNTLVRERKIYPTPDGYFIVTP [H37R],-0.144 ± 0.039
2,SPISQSQFIPLGEILCLAISAMNSARKPVTQEALMEELTTCFPGVPTPSQEILRHTLNTLVRERKIYPTPDGYFIVTP [H37E],-0.104 ± 0.061
3,SPISQSQFIPLGEILCLAISAMNSARKPVTQEALMEWLTTCFPGVPTPSQEILRHTLNTLVRERKIYPTPDGYFIVTP [H37W],-0.27 ± 0.049
4,SPISQSQFIPLGEILCLAISAMNSARKPVTQEALMEALTTCFPGVPTPSQEILRHTLNTLVRERKIYPTPDGYFIVTP [H37A],-0.285 ± 0.053
5,SPISQSQFIPLGEILCLAISAMNSARKPVTQEALMETLTTCFPGVPTPSQEILRHTLNTLVRERKIYPTPDGYFIVTP [H37T],-0.322 ± 0.11
6,SPISQSQFIPLGEILCLAISAMNSARKPVTQEALMEDLTTCFPGVPTPSQEILRHTLNTLVRERKIYPTPDGYFIVTP [H37D],-0.259 ± 0.074
7,SPISQSQFIPLGEILCLAISAMNSARKPVTQEALMEGLTTCFPGVPTPSQEILRHTLNTLVRERKIYPTPDGYFIVTP [H37G],-0.236 ± 0.042
8,SPISQSQFIPLGEILCLAISAMNSARKPVTQEALMEPLTTCFPGVPTPSQEILRHTLNTLVRERKIYPTPDGYFIVTP [H37P],-0.802 ± 0.12
9,SPISQSQFIPLGEILCLAISAMNSARKPVTQEALMEVLTTCFPGVPTPSQEILRHTLNTLVRERKIYPTPDGYFIVTP [H37V],-0.48 ± 0.055
10,SPISQSQFIPLGEILCLAISAMNSARKPVTQEALMEKLTTCFPGVPTPSQEILRHTLNTLVRERKIYPTPDGYFIVTP [H37K],-0.164 ± 0.1
11,SPISQSQFIPLGEILCLAISAMNSARKPVTQEALMECLTTCFPGVPTPSQEILRHTLNTLVRERKIYPTPDGYFIVTP [H37C],-0.222 ± 0.086
12,SPISQSQFIPLGEILCLAISAMNSARKPVTQEALMEMLTTCFPGVPTPSQEILRHTLNTLVRERKIYPTPDGYFIVTP [H37M],-0.357 ± 0.072
13,SPISQSQFIPLGEILCLAISAMNSARKPVTQEALMEYLTTCFPGVPTPSQEILRHTLNTLVRERKIYPTPDGYFIVTP [H37Y],-0.159 ± 0.083
14,SPISQSQFIPLGEILCLAISAMNSARKPVTQEALMELLTTCFPGVPTPSQEILRHTLNTLVRERKIYPTPDGYFIVTP [H37L],-0.548 ± 0.049
15,SPISQSQFIPLGEILCLAISAMNSARKPVTQEALMENLTTCFPGVPTPSQEILRHTLNTLVRERKIYPTPDGYFIVTP [H37N],-0.092 ± 0.11
16,SPISQSQFIPLGEILCLAISAMNSARKPVTQEALMEHHTTCFPGVPTPSQEILRHTLNTLVRERKIYPTPDGYFIVTP [L38H],-0.388 ± 0.21
17,SPISQSQFIPLGEILCLAISAMNSARKPVTQEALMEHKTTCFPGVPTPSQEILRHTLNTLVRERKIYPTPDGYFIVTP [L38K],-0.608 ± 0.4
18,SPISQSQFIPLGEILCLAISAMNSARKPVTQEALMEHITTCFPGVPTPSQEILRHTLNTLVRERKIYPTPDGYFIVTP [L38I],-0.091 ± 0.13

row,Variant,abundance fitness
1,SPISQSQFIPLGEILCLAISAMNSARKPVTQEALMEHYTTCFPGVPTPSQEILRHTLNTLVRERKIYPTPDGYFIVTP [L38Y],-0.391 ± 0.13
2,SPISQSQFIPLGEILCLAISAMNSARKPVTQEALMEHWTTCFPGVPTPSQEILRHTLNTLVRERKIYPTPDGYFIVTP [L38W],-0.048 ± 0.061
3,SPISQSQFIPLGEILCLAISAMNSARKPVTQEALMEHDTTCFPGVPTPSQEILRHTLNTLVRERKIYPTPDGYFIVTP [L38D],-0.915 ± 0.26
4,SPISQSQFIPLGEILCLAISAMNSARKPVTQEALMEHQTTCFPGVPTPSQEILRHTLNTLVRERKIYPTPDGYFIVTP [L38Q],-0.865 ± 0.16
5,SPISQSQFIPLGEILCLAISAMNSARKPVTQEALMEHVTTCFPGVPTPSQEILRHTLNTLVRERKIYPTPDGYFIVTP [L38V],-0.075 ± 0.047
6,SPISQSQFIPLGEILCLAISAMNSARKPVTQEALMEHRTTCFPGVPTPSQEILRHTLNTLVRERKIYPTPDGYFIVTP [L38R],-0.894 ± 0.091
7,SPISQSQFIPLGEILCLAISAMNSARKPVTQEALMEHSTTCFPGVPTPSQEILRHTLNTLVRERKIYPTPDGYFIVTP [L38S],-0.613 ± 0.066
8,SPISQSQFIPLGEILCLAISAMNSARKPVTQEALMEHGTTCFPGVPTPSQEILRHTLNTLVRERKIYPTPDGYFIVTP [L38G],-0.787 ± 0.065
9,SPISQSQFIPLGEILCLAISAMNSARKPVTQEALMEHFTTCFPGVPTPSQEILRHTLNTLVRERKIYPTPDGYFIVTP [L38F],0.014 ± 0.093
10,SPISQSQFIPLGEILCLAISAMNSARKPVTQEALMEHATTCFPGVPTPSQEILRHTLNTLVRERKIYPTPDGYFIVTP [L38A],-0.386 ± 0.07
11,SPISQSQFIPLGEILCLAISAMNSARKPVTQEALMEHPTTCFPGVPTPSQEILRHTLNTLVRERKIYPTPDGYFIVTP [L38P],-0.998 ± 0.3
12,SPISQSQFIPLGEILCLAISAMNSARKPVTQEALMEHCTTCFPGVPTPSQEILRHTLNTLVRERKIYPTPDGYFIVTP [L38C],-0.316 ± 0.12
13,SPISQSQFIPLGEILCLAISAMNSARKPVTQEALMEHTTTCFPGVPTPSQEILRHTLNTLVRERKIYPTPDGYFIVTP [L38T],-0.258 ± 0.059
14,SPISQSQFIPLGEILCLAISAMNSARKPVTQEALMYHLTTCFPGVPTPSQEILRHTLNTLVRERKIYPTPDGYFIVTP [E36Y],-0.144 ± 0.2
15,SPISQSQFIPLGEILCLAISAMNSARKPVTQEALMTHLTTCFPGVPTPSQEILRHTLNTLVRERKIYPTPDGYFIVTP [E36T],-0.006 ± 0.067
16,SPISQSQFIPLGEILCLAISAMNSARKPVTQEALMVHLTTCFPGVPTPSQEILRHTLNTLVRERKIYPTPDGYFIVTP [E36V],-0.102 ± 0.044
17,SPISQSQFIPLGEILCLAISAMNSARKPVTQEALMWHLTTCFPGVPTPSQEILRHTLNTLVRERKIYPTPDGYFIVTP [E36W],-0.187 ± 0.064
